The source of these data is article PMC5065051, “Genetic and Biochemical Approaches for In Vivo and In Vitro Assessment of Protein Oligomerization: The Ryanodine Receptor Case Study” (Journal of Visualized Experiments : JoVE, 2016).

Data set [1] concerns the target BT8, RyR2 extreme C-terminal domain (bait) (human). In words: two-hybrid; GAL4 system in yeast; quantitative liquid culture β-Gal assay (ONPG), 30 °C; normalized against the positive control pVA3 + pTD1.
Data set [2] concerns the molecule itself. Put plainly: cross-linking; glutaraldehyde (0.0025% v/v, 0-60 min, RT) on HEK293 cell homogenate treated with dithiothreitol; SDS-PAGE and blot with Ab^cMyc.

Take “RyR2 N-terminal fragment (RyR2 residues 1 - 906), GAL4 fusions for yeast two-hybrid (from UniProt Q92736 1-906) (domain or fragment)”: in data set [1], the β-Gal activity, percent of the positive control (pVA3 + pTD1) is less than 10%.

B1: RyR2 N-terminus domain (residues 1 - 906), cMyc-tagged (BT4L) or HA-tagged (AD4L), expressed in HEK293 (domain or fragment, human, UniProt Q92736 1-906, looked up)
chain: MADGGEGEDEIQFLRTDDEVVLQCTATIHKEQQKLCLAAEGFGNRLCFLESTSNSKNVPPDLSICTFVLEQSLSVRALQEMLANTVEKSEGQVDVEKWKFMMKTAQGGGHRTLLYGHAILLRHSYSGMYLCCLSTSRSSTDKLAFDVGLQEDTTGEACWWTIHPASKQRSEGEKVRVGDDLILVSVSSERYLHLSYGNGSLHVDAAFQQTLWSVAPISSGSEAAQGYLIGGDVLRLLHGHMDECLTVPSGEHGEEQRRTVHYEGGAVSVHARSLWRLETLRVAWSGSHIRWGQPFRLRHVTTGKYLSLMEDKNLLLMDKEKADVKSTAFTFRSSKEKLDVGVRKEVDGMGTSEIKYGDSVCYIQHVDTGLWLTYQSVDVKSVRMGSIQRKAIMHHEGHMDDGISLSRSQHEESRTARVIRSTVFLFNRFIRGLDALSKKAKASTVDLPIESVSLSLQDLIGYFHPPDEHLEHEDKQNRLRALKNRQNLFQEEGMINLVLECIDRLHVYSSAAHFADVAGREAGESWKSILNSLYELLAALIRGNRKNCAQFSGSLDWLISRLERLEASSGILEVLHCVLVESPEALNIIKEGHIKSIISLLDKHGRNHKVLDVLCSLCVCHGVAVRSNQHLICDNLLPGRDLLLQTRLVNHVSSMRPNIFLGVSEGSAQYKKWYYELMVDHTEPFVTAEATHLRVGWASTEGYSPYPGGGEEWGGNGVGDDLFSYGFDGLHLWSGCIARTVSSPNQHLLRTDDVISCCLDLSAPSISFRINGQPVQGMFENFNIDGLFFPVVSFSAGIKVRFLLGGRHGEFKFLPPPGYAPCYEAVLPKEKLKVEHSREYKQERTYTRDLLGPTVSLTQAAFTPIPVDTSQIVLPPHLERIREKLAENIHELWVMNKIELGWQYGP
notes: ryanodine receptor 2 (RyR2), human, residues 1-906; Two copies of the same stretch, each with ONE tag: in the co-IP cMyc-BT4L and HA-AD4L were co-expressed; in the cross-linking cMyc-BT4L was expressed alone; also called cMyc-BT4L; source: HEK293, transiently transfected (calcium phosphate), in lysate or homogenate
Take B1: the “stoichiometry N” value in data set [2] worked out at 4.

The term stoichiometry N denotes the number of molecules, sites or subunits per partner or assembly.
